Each block holds one binder with its values, some of them ahead of it.
Target: T1, purified human CD47-Fc fusion protein (human, UniProt Q08722 19-139, limits assumed)
T1 construct: Coated on ELISA plates at 1.0 ug/ml; also called soluble CD47; human CD47 soluble protein; not shown: Fc part
Experiment: ELISA on coated human CD47 soluble protein (FIG. 11)

T1 sequence (Q08722 19-139 limits assumed): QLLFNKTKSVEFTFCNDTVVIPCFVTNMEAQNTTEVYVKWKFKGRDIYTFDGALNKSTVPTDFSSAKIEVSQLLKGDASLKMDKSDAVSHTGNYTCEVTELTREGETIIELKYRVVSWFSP

binding result: binds
B1: chimeric 8B6 antibody (antibody, V domains shown)
VH: EVQLQQSGPELVKPGASVKMSCKASGYTFTTYVVHWVKQTPGQGLEWIGYINPYNDGTKYNEKFKGKATLTSDKSSSTAYMEFSSLTSEDSAVYYCVRGYYRYGYTMDYWGQGTSVTVSS
VL: DIVMTQSPATLSVTPGDRVSLSCRASQNFSDYLHWYQQKSHESPRLLIKYVSHSISGIPSRFSGSGSGSDFTLSINSVEPEDVGVYYCQNGHSFPPTFGGGTKLEIK
notes: Mouse 8B6 variable regions in a chimeric native IgG; detection was with anti-human kappa

binding result: binds
B2: chimeric 5F9 antibody (antibody, V domains shown)
VH: QVQLQQPGAELVKPGASVMMSCKASGYTFTNYNMHWVKQTPGQGLEWIGTIYPGNDDTSYNQKFKDKATLTADKSSSAAYMQLSSLTSEDSAVYYCARGGYRAMDYWGQGTSVTVSS
VL: DVLMTQTPLSLPVSLGDQASISCRSSQSIVYSNGNTYLGWYLQKPGQSPKLLIYKVSNRFSGVPDRFSGSGSGTDFTLKISRVEAEDLGVYHCFQGSHVPYTFGGGTKVEIK
notes: Mouse 5F9 variable regions in a chimeric native IgG; detection was with anti-human kappa

— US20210246206A1 (Stanford University, published 2021)
